Source: patent US20150344570A1 (published 2015)

T1: FcγRIIa R (human, UniProt P12318 34-217)
T1 construct: extracellular domain; also called FcgRIIa R type; 2aR
T1 sequence (looked up): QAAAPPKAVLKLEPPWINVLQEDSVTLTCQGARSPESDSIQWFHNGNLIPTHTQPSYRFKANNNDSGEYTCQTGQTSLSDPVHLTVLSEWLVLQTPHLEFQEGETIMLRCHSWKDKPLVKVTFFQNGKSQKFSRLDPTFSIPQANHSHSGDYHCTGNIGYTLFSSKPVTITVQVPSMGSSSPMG

T2: FcγRIIb (human, UniProt P31994 43-217)
T2 construct: extracellular domain; also called FcgRIIb; 2b
T2 sequence (looked up): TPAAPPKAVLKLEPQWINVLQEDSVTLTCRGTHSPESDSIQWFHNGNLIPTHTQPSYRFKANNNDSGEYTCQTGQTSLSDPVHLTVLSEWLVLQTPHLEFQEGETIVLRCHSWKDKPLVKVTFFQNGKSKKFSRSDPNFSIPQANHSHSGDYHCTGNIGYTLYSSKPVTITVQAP

B1: GpH7-B3 variant T335_04F/GpL16-k0 (antibody, human IgG1, kappa)
heavy: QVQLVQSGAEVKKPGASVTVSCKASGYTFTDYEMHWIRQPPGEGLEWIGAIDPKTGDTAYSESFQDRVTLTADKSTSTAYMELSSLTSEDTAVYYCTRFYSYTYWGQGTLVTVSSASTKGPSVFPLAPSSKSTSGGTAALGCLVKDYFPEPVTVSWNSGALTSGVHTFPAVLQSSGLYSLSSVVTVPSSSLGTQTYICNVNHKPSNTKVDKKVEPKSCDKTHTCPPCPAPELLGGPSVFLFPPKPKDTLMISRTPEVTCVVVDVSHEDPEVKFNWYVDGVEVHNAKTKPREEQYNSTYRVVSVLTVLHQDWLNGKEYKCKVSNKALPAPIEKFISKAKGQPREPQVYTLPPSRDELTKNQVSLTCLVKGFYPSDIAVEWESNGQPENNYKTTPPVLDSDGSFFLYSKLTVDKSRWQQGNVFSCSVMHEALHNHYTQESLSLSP
light: DIVMTQSPLSLPVTPGEPASISCQASESLVHSNRNTYLHWYLQKPGQSPQLLIYKVSNRFSGVPDRFSGSGSGTDFTLKISRVEAEDVGVYYCSQNTHVPPTFGQGTKVEIERTVAAPSVFIFPPSDEQLKSGTASVVCLLNNFYPREAKVQWKVDNALQSGNSQESVTEQDSKDSTYSLSSTLTLSKADYEKHKVYACEVTHQGLSSPVTKSFNRGEC
notes: homodimerized IgG1, mutation in both H chains; also called Ho Ab
B2: GpH7-B3 variant A330_01G/GpL16-k0 (antibody, human IgG1, kappa)
heavy: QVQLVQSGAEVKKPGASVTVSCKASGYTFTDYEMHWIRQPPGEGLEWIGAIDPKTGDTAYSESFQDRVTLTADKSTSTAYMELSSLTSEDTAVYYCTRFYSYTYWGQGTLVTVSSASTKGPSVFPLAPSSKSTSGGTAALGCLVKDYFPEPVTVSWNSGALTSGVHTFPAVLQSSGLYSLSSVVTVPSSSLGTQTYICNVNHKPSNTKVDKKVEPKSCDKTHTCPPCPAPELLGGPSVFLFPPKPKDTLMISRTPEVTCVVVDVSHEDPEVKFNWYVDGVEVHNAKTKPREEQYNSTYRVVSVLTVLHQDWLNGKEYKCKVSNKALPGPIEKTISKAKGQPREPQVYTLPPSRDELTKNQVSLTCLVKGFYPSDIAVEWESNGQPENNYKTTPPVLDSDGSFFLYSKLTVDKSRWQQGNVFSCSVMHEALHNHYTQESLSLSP
light: B1 light
notes: as for B1
B3: GpH7-B3 variant A330_04F/GpL16-k0 (antibody, human IgG1, kappa)
heavy: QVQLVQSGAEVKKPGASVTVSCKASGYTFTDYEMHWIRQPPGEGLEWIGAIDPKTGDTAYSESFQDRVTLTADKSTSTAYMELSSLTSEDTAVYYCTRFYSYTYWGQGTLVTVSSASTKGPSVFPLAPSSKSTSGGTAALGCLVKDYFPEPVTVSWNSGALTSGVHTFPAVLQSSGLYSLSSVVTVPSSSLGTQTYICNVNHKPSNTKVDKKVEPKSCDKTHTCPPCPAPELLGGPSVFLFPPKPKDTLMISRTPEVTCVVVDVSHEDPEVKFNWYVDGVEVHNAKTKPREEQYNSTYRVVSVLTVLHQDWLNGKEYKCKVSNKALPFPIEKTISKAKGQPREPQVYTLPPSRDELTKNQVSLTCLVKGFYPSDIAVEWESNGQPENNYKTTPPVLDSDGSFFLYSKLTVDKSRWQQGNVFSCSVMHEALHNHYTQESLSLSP
light: B1 light
notes: as for B1
B4: GpH7-B3 variant A330_10E/GpL16-k0 (antibody, human IgG1, kappa)
heavy: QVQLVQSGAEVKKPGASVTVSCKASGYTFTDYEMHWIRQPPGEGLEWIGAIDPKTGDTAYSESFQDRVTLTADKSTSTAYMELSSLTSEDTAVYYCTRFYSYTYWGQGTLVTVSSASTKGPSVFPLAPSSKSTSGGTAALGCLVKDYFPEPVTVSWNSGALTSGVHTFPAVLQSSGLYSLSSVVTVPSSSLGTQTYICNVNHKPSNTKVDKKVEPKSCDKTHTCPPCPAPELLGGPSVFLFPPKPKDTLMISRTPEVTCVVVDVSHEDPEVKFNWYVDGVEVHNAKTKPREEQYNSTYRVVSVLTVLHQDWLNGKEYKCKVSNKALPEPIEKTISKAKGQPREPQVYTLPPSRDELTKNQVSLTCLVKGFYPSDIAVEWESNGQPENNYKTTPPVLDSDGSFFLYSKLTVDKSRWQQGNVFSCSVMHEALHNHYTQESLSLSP
light: B1 light
notes: as for B1
B5: GpH7-A5/GpH7-B3 variant E269_18N/GpL16-k0 (antibody, human IgG1, kappa)
heavy 1: not shown
heavy 2: not shown
light: B1 light
notes: heterodimerized anti-glypican-3 IgG1; alteration in one H chain only; also called He Ab
B6: GpH7-A5/GpH7-B3 variant E269_19Q/GpL16-k0 (antibody, human IgG1, kappa)
heavy 1: not shown
heavy 2: not shown
light: B1 light
notes: as for B5
B7: GpH7-A5/GpH7-B3 variant E269_20W/GpL16-k0 (antibody, human IgG1, kappa)
heavy 1: not shown
heavy 2: not shown
light: B1 light
notes: as for B5
B8: GpH7-A5/GpH7-B3 variant H268_06M/GpL16-k0 (antibody, human IgG1, kappa)
heavy 1: not shown
heavy 2: not shown
light: B1 light
notes: as for B5
B9: GpH7-A5/GpH7-B3 variant H268_08L/GpL16-k0 (antibody, human IgG1, kappa)
heavy 1: not shown
heavy 2: not shown
light: B1 light
notes: as for B5
B10: GpH7-A5/GpH7-B3 variant H268_11K/GpL16-k0 (antibody, human IgG1, kappa)
heavy 1: not shown
heavy 2: not shown
light: B1 light
notes: as for B5
B11: GpH7-A5/GpH7-B3 variant P271_04F/GpL16-k0 (antibody, human IgG1, kappa)
heavy 1: not shown
heavy 2: not shown
light: B1 light
notes: as for B5
B12: GpH7-A5/GpH7-B3 variant P271_15Y/GpL16-k0 (antibody, human IgG1, kappa)
heavy 1: not shown
heavy 2: not shown
light: B1 light
notes: as for B5
B13: GpH7-A5/GpH7-B3 variant P271_20W/GpL16-k0 (antibody, human IgG1, kappa)
heavy 1: not shown
heavy 2: not shown
light: B1 light
notes: as for B5
B14: GpH7-A5/GpH7-B3 variant Q295_01G/GpL16-k0 (antibody, human IgG1, kappa)
heavy 1: not shown
heavy 2: not shown
light: B1 light
notes: as for B5
B15: GpH7-A5/GpH7-B3 variant Q295_03V/GpL16-k0 (antibody, human IgG1, kappa)
heavy 1: not shown
heavy 2: not shown
light: B1 light
notes: as for B5
B16: GpH7-A5/GpH7-B3 variant Q295_04F/GpL16-k0 (antibody, human IgG1, kappa)
heavy 1: not shown
heavy 2: not shown
light: B1 light
notes: as for B5
B17: GpH7-A5/GpH7-B3 variant Q295_05P/GpL16-k0 (antibody, human IgG1, kappa)
heavy 1: not shown
heavy 2: not shown
light: B1 light
notes: as for B5
B18: GpH7-A5/GpH7-B3 variant Q295_11K/GpL16-k0 (antibody, human IgG1, kappa)
heavy 1: not shown
heavy 2: not shown
light: B1 light
notes: as for B5
B19: GpH7-A5/GpH7-B3 variant Q295_12R/GpL16-k0 (antibody, human IgG1, kappa)
heavy 1: not shown
heavy 2: not shown
light: B1 light
notes: as for B5
B20: GpH7-A5/GpH7-B3 variant Q295_13S/GpL16-k0 (antibody, human IgG1, kappa)
heavy 1: not shown
heavy 2: not shown
light: B1 light
notes: as for B5
B21: GpH7-A5/GpH7-B3 variant Q295_15Y/GpL16-k0 (antibody, human IgG1, kappa)
heavy 1: not shown
heavy 2: not shown
light: B1 light
notes: as for B5
B22: GpH7-A5/GpH7-B3 variant Q295_16H/GpL16-k0 (antibody, human IgG1, kappa)
heavy 1: not shown
heavy 2: not shown
light: B1 light
notes: as for B5
B23: GpH7-A5/GpH7-B3 variant Q295_18N/GpL16-k0 (antibody, human IgG1, kappa)
heavy 1: not shown
heavy 2: not shown
light: B1 light
notes: as for B5
B24: GpH7-A5/GpH7-B3 variant Q295_20W/GpL16-k0 (antibody, human IgG1, kappa)
heavy 1: not shown
heavy 2: not shown
light: B1 light
notes: as for B5
B25: GpH7-A5/GpH7-B3 variant S298_01G/GpL16-k0 (antibody, human IgG1, kappa)
heavy 1: not shown
heavy 2: not shown
light: B1 light
notes: as for B5
B26: GpH7-A5/GpH7-B3 variant S298_02A/GpL16-k0 (antibody, human IgG1, kappa)
heavy 1: not shown
heavy 2: not shown
light: B1 light
notes: heterodimerized anti-glypican-3 IgG1; alteration in one H chain only; also called He Ab; GpH7-A5/GpH7-B3-15-02A/GpL16-k0
B27: GpH7-A5/GpH7-B3 variant S298_03V/GpL16-k0 (antibody, human IgG1, kappa)
heavy 1: not shown
heavy 2: not shown
light: B1 light
notes: as for B5
B28: GpH7-A5/GpH7-B3 variant S298_04F/GpL16-k0 (antibody, human IgG1, kappa)
heavy 1: not shown
heavy 2: not shown
light: B1 light
notes: as for B5
B29: GpH7-A5/GpH7-B3 variant S298_05P/GpL16-k0 (antibody, human IgG1, kappa)
heavy 1: not shown
heavy 2: not shown
light: B1 light
notes: as for B5
B30: GpH7-A5/GpH7-B3 variant S298_07I/GpL16-k0 (antibody, human IgG1, kappa)
heavy 1: not shown
heavy 2: not shown
light: B1 light
notes: as for B5
B31: GpH7-A5/GpH7-B3 variant S298_09D/GpL16-k0 (antibody, human IgG1, kappa)
heavy 1: not shown
heavy 2: not shown
light: B1 light
notes: as for B5
B32: GpH7-A5/GpH7-B3 variant V266_16H/GpL16-k0 (antibody, human IgG1, kappa)
heavy 1: not shown
heavy 2: not shown
light: B1 light
notes: as for B5
B33: GpH7-A5/GpH7-B3 variant Y296_01G/GpL16-k0 (antibody, human IgG1, kappa)
heavy 1: not shown
heavy 2: not shown
light: B1 light
notes: as for B5
B34: GpH7-A5/GpH7-B3 variant Y296_03V/GpL16-k0 (antibody, human IgG1, kappa)
heavy 1: not shown
heavy 2: not shown
light: B1 light
notes: as for B5
B35: GpH7-A5/GpH7-B3 variant Y296_05P/GpL16-k0 (antibody, human IgG1, kappa)
heavy 1: not shown
heavy 2: not shown
light: B1 light
notes: as for B5
B36: GpH7-A5/GpH7-B3 variant Y296_11K/GpL16-k0 (antibody, human IgG1, kappa)
heavy 1: not shown
heavy 2: not shown
light: B1 light
notes: as for B5
B37: GpH7-A5/GpH7-B3 variant Y296_12R/GpL16-k0 (antibody, human IgG1, kappa)
heavy 1: not shown
heavy 2: not shown
light: B1 light
notes: as for B5

biological target: T3, FcγRIa (human, UniProt P12314 16-292); assay: SPR (Biacore), captured antibody, FcγRIa analyte; relative to GpH7-B3/GpL16-k0
T3 construct: extracellular domain; soluble His-tagged extracellular domain expressed in FreeStyle293 cells, used as analyte in Biacore; also called FcgRI; CD64
T3 sequence (P12314 16-292): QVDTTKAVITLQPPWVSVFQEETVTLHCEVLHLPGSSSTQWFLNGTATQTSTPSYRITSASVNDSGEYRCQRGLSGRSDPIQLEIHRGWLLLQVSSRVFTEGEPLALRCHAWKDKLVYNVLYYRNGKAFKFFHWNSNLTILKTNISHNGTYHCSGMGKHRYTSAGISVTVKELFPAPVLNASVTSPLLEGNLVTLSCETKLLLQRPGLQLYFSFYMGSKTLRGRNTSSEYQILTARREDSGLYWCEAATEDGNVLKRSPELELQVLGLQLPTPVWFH

Binder	Ho/Con_1a
B1	105 relative, control = 100
B2	106 relative, control = 100
B3	107 relative, control = 100
B4	108 relative, control = 100

biological target: T1, FcγRIIa R; assay: SPR (Biacore); He/Con_2aR divided by He/Con_2b (FcγRIIa R over FcγRIIb)

Binder	He_2aR/2b (IIaR/IIb) [ratio]
B5	1.32
B6	1.31
B7	1.3
B8	1.23
B9	1.25
B10	1.21
B11	1.28
B12	1.35
B13	1.33
B14	1.32
B15	1.2
B16	1.29
B17	1.3
B18	1.26
B19	1.27
B20	1.3
B21	1.27

Binder	He_2aR/2b (IIaR/IIb) [ratio]
B22	1.3
B23	1.27
B24	1.35
B25	1.23
B26	1.24
B27	1.34
B28	1.29
B29	1.34
B30	1.28
B31	1.4
B32	1.34
B33	1.21
B34	1.21
B35	1.3
B36	1.3
B37	1.25

biological target: T2, FcγRIIb; assay: SPR (Biacore), captured antibody, FcγR as analyte; relative binding, control GpH7-A5/GpH7-B3/GpL16-k0 = 100
Description: (§1) The heterodimerized antibodies He Abs in which one of the H chains was introduced with an alteration were assayed for their binding activities to each activating FcγR and inhibitory FcγR according to the method described in Example 4. […] The activating FcγRs in FIGS. 26, 27, 28, and 29 are FcγRIa, FcγRIIa (R), FcγRIIa (H), and FcγRIIIa, respectively.
(§2) Analysis of interaction between objective antibody and the FcγR was carried out using Biacore T100 (GE Healthcare). HBS-EP+ (GE Healthcare) was used as the running buffer, and the measurement temperature was set to 25° C. Chips produced by immobilizing the antigen peptide by the amine coupling method to a Series S Sencor Chip CM5 (GE Healthcare), or alternatively, chips produced by allowing preliminarily biotinylated antigen peptides to interact with and immobilize onto a Series S Sensor Chip SA (certified) (GE Healthcare) were used. Antibodies of interest were captured onto an antigen peptide-immobilized chip, and allowed to interact to each FcγR diluted with running buffer. To regenerate and repeatedly use the chip, the antibodies captured on the chip were washed off by reacting 10 mM glycine-HCl, pH 1.5.

Binder	He/Con_2b [control = 100]
B5	44.8
B6	44.3
B7	42.5
B8	65.7
B9	67.8
B10	83
B11	59.5
B12	52.3
B13	58.1
B14	46
B15	75.7
B16	64.7
B17	67.5
B18	70.4
B19	65.2
B20	56.9
B21	65.4

Binder	He/Con_2b [control = 100]
B22	62.7
B23	64.9
B24	44.4
B25	80.1
B26	73.4
B27	64.5
B28	65.4
B29	11.9
B30	70.6
B31	48.3
B32	57.2
B33	79.3
B34	79.3
B35	36.6
B36	72.8
B37	79.5

biological target: T1, FcγRIIa R; assay: as above
Description: as §1, §2

Binder	He/Con_2aR [control = 100]
B5	59.2
B6	57.8
B7	55.5
B8	81
B9	85
B10	100
B11	75.9
B12	70.7
B13	77.3
B14	60.9
B15	91.2
B16	83.6
B17	87.4
B18	88.9
B19	83
B20	73.7
B21	82.8

Binder	He/Con_2aR [control = 100]
B22	81.3
B23	82.4
B24	60
B25	98.8
B26	91.2
B27	86.3
B28	84
B29	16
B30	90.1
B31	67.8
B32	76.5
B33	95.8
B34	96.2
B35	47.7
B36	94.3
B37	99.6
